Values quoted from earlier work in patent US6126956A, “Subcutaneous implant” (priority 1998, dated 2000).
Read-outs that look alike come from different tables or passages of the source.

Conditions: coated EVA with hole in one face, or coated hemisphere with exposed cavity

## albumin
  release kinetics from prior polymer devices: zero order kinetics

## Insulin
  release kinetics from prior polymer devices: near constant release rates
Listed as insulin
  release kinetics from prior polymer devices: zero order kinetics
